Assay results taken from the DeepSol protein solubility set.

Assay: soluble on expression in E. coli; label from the status in PepcDB or PDB records

Sequence: MTTELETSFADLGLSAPILSALTDLGYEKPSPIQLECIPHLLNGRDVLGMAQTGSGKTAAFGLPLLHNIKADLKSPQVLVLAPTRELAVQVAEALSSFSKHINGVNVVALYGGQRYDVQLRALRQGPQVVVGTPGRLLDHLKRGTLNLSNLSGLVLDEADEMLRMGFIEDVETIMAQIPAEHQTALFSATMPEAIRRITRRFMKEPQEVRIQSSVTTRPDISQSYWRVGGGYRKNEALVRFLEAEDFDAAIIFVRTKNATLEVAEALERSGYNSAALNGDMNQALREQTLERLKDGRLDILIATDVAARGLDVERISLVVNYDIPMDSESYVHRIGRTGRAGRAGRALLFVENRERRLLQNIERTMKLTIPEVELPNADLLSERRLAKFAAKVSQQLESSDLDMYRALLAKLQPEEEFDIETLAAALLKMAQGERPLILPPEAPRRPQREFNSRDDRGNDRGSRDRGDSRRDNRSDSRSADSRDGGERPARRERRDVGEMELYRIEVGRDDGVEVRHIVGAIANEGDISSRYIGNIKLFASHSTIELPKGMPGEMLSHFTRTRILNKPLNMQLLGDAQPHERRERPAGGNGGERRGGGRPFSGERREGAGAPPRRSFSGDRAPTGGGERRGNRDGQRSAAPRRDDAAAPAAAAAAPARRRFGDA
- soluble on expression in E. coli: not soluble

Sequence: MIGTAVKELLLEKQETFLVPAENVANVMCLNPLSHAALVLSQVRYSKIPVLDKGDRFVGLIGLTDVVDKMFDLTSVDFEKLNEFTVADVMEVNVPVIGESWDLEEVLHLLVDASFLPVVDDNQRFKGIITRKEILKAVNHMAHELEKHHLVLPKSEEEMKVI
- soluble on expression in E. coli: not soluble

Sequence: MAHHHHHHMNAVKEADVVFLEAYTSFLINSNAEKLAGIYGKPVILADREMVESGAVLDDAKVKKVVLLVVGDVFGATTHSDLIVRCNRQGIESKIVHNASIINAVGCCGLQLYRFGQVISLCFWTETWRPDSWYERLQSNRAAGIHTLVLLDIKVKEISDENLARGRKIYEPPRYMTIRQAIEQILEVEGYKQGGAVAADGSTFAVGLARVGSESQQVVAGTMKDLLSVDFGAPLHSLVIAGDVHDCEQEHVDLFRMAGQ
- soluble on expression in E. coli: not soluble

Sequence: MACQTGIRANAALRNALNLGKQAKLRLIKIVVNNEEMTPNYEFAGTANWRDDWRACLPDCVDAYEPCFILFRLNTITEWVLITFVDDRAPVREKMLLAATCATFKSEFGQCYIEHEKHVTDLKDLTLNAFEAWLKAKTELGPMSEVERELHNAQQERAAIAHAGPQHMKGVAFPVDRNAEEALRQLASQKLSFVQLSVDTLNEAIKLEGTLESLEPSQLASKVPRDKPRYTFYNFDHTWEGVPQQCTLFIYSLPSSGSSIKERMLYSSCKGPFLSAAQNQYGVVITNKMEVDARDDLSEKALLEVIHPLPVEAPKQFSRPAPPRAGPRRITKV
- soluble on expression in E. coli: not soluble

Sequence: MGSDKIHHHHHHMNKPKVPPTITEQPDEQTFAYLLAHIQQTRQQVFAQVNTALIELYWSVGKTISEKVVSAGWGKGVVKQLAAYLASQAPDIKGFSDKNLWRMKQFYETYQHDIKLASLVRVLPWTHNTIIFSRCKSNREREHYLMLVQRERLSSRELERHINAAHFERSLIEQPKLSAVLRQSHPIANTIFKDNYTLEFLGLPSSHSESDLQKAIINNLKTFILELGKDFIFIDEEYRLQVGNQDFYIDLLFFHRGLAALVAFELKIGKFSPQHLGQLDFYLEALDRDVKKPHENPSIGVLLCRDKDDEVVEYALSRNLSPTLVAQYQCQMPDKQLLQAKLHQLLQDLPAQDELASQHMTEQMPRQGEYNE
- soluble on expression in E. coli: not soluble

Sequence: MHGTCLSGLYPVPFTHNSHDYPHFNIYISFGGPKYCITALNTYVTPLLHRILTTQFIYTYANITKKSPLKSPKHKNILFFNHNT
- soluble on expression in E. coli: soluble

Sequence: MSQPIQFESNIALINYPKQAAFGRTLPKNKIYEHSGANTRLKDLFIEQVELIVWRYKLAPETINLPARPGVPELQIFSIQLKTSELNLDVLHCIDGAVQFPIIFELSFDGRTKVIAAYKRPNESDASRWVLSSYFATAWLPSDSERAAIPLALDLGGLYEQVLHRLIPMPARPQESLADLVARVEMVAAKQREVEKAASRLAKEKQFNRKVEINAQLRQLKNELEELTGRENA
- soluble on expression in E. coli: not soluble

Sequence: MSLYPKAYIDYLVEFHATRDYFECHEILEEYWKEDPPKKRKRYWVGFIQLAVALYHHRRQNTAGAKRLMANSIRILQAEHRAVEDLGLDHGRLLELMQSVYEQIETVSAYKSIILPIKDEKLEEACRIECRKKKYTWGQPSALSNIFLIDKHRLRDRTDVIREREKEIERRKKSRDEGHHHHHH
- soluble on expression in E. coli: soluble

Sequence: MALEFTTLPQLYAHDYDTVIDVRSPAEFAEDHLPGAINLPVLDNEERARVGTIYKQQSPFLARKLGAALVFRNAASHVEQSLSHHEGHWRPLVYCWRGGQRSGSFTWMLQQIGWRAEVVSGGYRTYRRLVNRYLYEDPLPHRLVALDGFTGTAKTEILARLPALGVQMLDLEALANHRGSLLGARPGGQPEQKAFESALAAALCRLDPTRPVVVEAESSRIGERILPPSLWAALCAAPRIEIEAPVAARSAYLTAAYDDILSDAETLTARLDPLRYHRGHAVVEGWLALVAAGDKHGVTRALMEQHYDPAYRKSRASHAVQVAARLRSDTLDHAGIDTLTAQVAAVLKAL
- soluble on expression in E. coli: not soluble

Sequence: MAHHHHHHMMSAAARKRRCQQARQREPAAPQQKGEASRHDDTAEPERKPLTGAVSPAINSAAEAPSATPPVLSSHFSLKPGLPTSPPLMHKRTATRCGSVDEDALFFQTYENVADMRFASLDEIAQSVVDLRQRVQQRMQHQRLLTDIEALHERHGSALLRSMPHVLNVLEAAAAVDDGAEGPSGRSGGGQFTMSPEQVYARMVRQIDEQRSGHEQHQRDPDNAEKVVGILHLRQLPVGRPIPPRIRQLRESAALAQVAASEEARRRSRLLPRESKDRSSSTTKRGVSVSAAVSIQFADPAAPLMASSTGGGRSSSLTTVMELRRWRPYLERRNRLSAALTRIFDATTLRAVYSYYRTCALLQRDAAVVRRLVPDRQQWSALPSIEELAVLDRRLEVMFEGRPSWDGRQGA
- soluble on expression in E. coli: not soluble

Sequence: MGSDKIHHHHHHMSDRLPPLTALRAFDAAARHMSFAKAADELSVTPAALSFQIKSLEEHLGAPLFRRLNRAVELTEAGAALAPGVDEGFQALSAAWRQARRVLDTTSLTVTAGPALTAKWLAPRLYEFARSHPDIDLRLSAGLKMVDLRRDHVDVAIRFGYSVDDYLVAQAARPEWLTPVMTPELCAKYPTPQSLRDAPLIYDDSIGFLSPSCDWPTWFRAMGLEFTPGHGTHFSHADHAIDAACAGLGVALGRRPMIIKDVQEGRLVAPFKVAIETDAKFHFLCLPSSQDRPQIRAFREWFFSEIEKTAHMWDDFTIIPVKDL
- soluble on expression in E. coli: not soluble

Sequence: MGSDKIHHHHHHSDDNKTTGATYDPNQPVTVESFMPVEGKLREKVIVKGSNFGTDKSKVKVYFVDEAAERLSTVIGIDNNTLYCLAPRQLPGGNRIKVIVDGKEVTTDGTFKYEQAQNVSTISGSASKDGNDDGDLASAKFKYMWGIAAVGNNTVLAYQRDDPRVRLISVDDNKVTTVHPGFKGGKPAVTKDKQRVYSIGWEGTHTVYVYMKASGWAPTRIGQLGSTFSGKIGAVALDETEEWLYFVDSNKNFGRFNVKTQEVTLIKQLELSGSLGTNPGPYLIYYFVDSNFYMSDQNLSSVYKITPDGECEWFCGSATQKTVQDGLREEALFAQPNGMTVDEDGNFYIVDGFKGYCLRKLDILDGYVSTVAGQVDVASQIDGTPLEATFNYPYDICYDGEGGYWIAEAWGKAIRKYAVE
- soluble on expression in E. coli: not soluble

Sequence: GHMAESQALSDDIGFLLSRVGGMVLGAVNKALVPTGLRVRSYSVLVLACEQAEGVNQRGVAATMGLDPSQIVGLVDELEERGLVVRTLDPSDRRNKLIAATEEGRRLRDDAKARVDAAHGRYFEGIPDTVVNQMRDTLQSIAFPTFVEGS
- soluble on expression in E. coli: soluble

Sequence: MDIKAQLKQIQDKGLYRELQPIQSVEKQYIYINDQSYINFTSNDYLGIGQLEYQPQNFLDFIKTYSIHLSSSRLVSGNSVVYQQLEQAISEHFNFEDALIFNSGYDANLAVFNIFKNNNVVIFSDQQNHASIIDGIKLSGLSKVIYQHLNYDDLESHLAQDTHLDVQKVIVSDSVFSTNGTKADINRLVHLKQRYNAILIIDASHSLGLNLFEYHADIDIVTSSLSKAWGAHGGIIFSSKDIKDLIINKGRSLIYSSSLPSYHLYFIQVSLQHVIEDTYRREKLNALSEYFNHQFMELFPNQPLSNTPIKNIVCDSLASAQAQYDMLFEHGIFVSYLRYPTVSQPTLRISLSYFHDTDDIDRLFNVMKQYDEGDSYV
- soluble on expression in E. coli: not soluble

Sequence: MIAVSFKCRCQILRRLTKDESPYTKSASQTKPPDGALAVRRQSIPEEFKGSTVVELMKKEGTTLGLTVSGGIDKDGKPRVSNLRQGGIAARSDQLDVGDYIKAVNGINLAKFRHDEIISLLKNVGERVVLEVEYELPPVSVQGSSVIFRTVEVTLHKEGNTFGFVIRGGAHDDRNKSRPVVITCVRPGGPADREGTIKPGDRLLSVDGIRLLGTTHAEAMSILKQCGQEAALLIEYDVSVMDSVATASGPLLVEVAKTPGASLGVALTTSMCCNKLVIVIDKIKSASIADRCGALHVGDHILSIDGTSMEYCTLAEATQFLANTTDQVKLEILPHHQTRLALKGPDHAALVSSSFSPTSMSAYSLSSLNMGTLPRSLYSTSPRGTMMRRRLKKKDFKSSLSLASSTVGLAGQVVHTETTEVVLTADPVTGFGIQLQGSVFATETLSSPPLISYIEADSPAERCGVLQIGDRVMAINGIPTEDSTFEEASLLLRDSSITSKVTLEIEFDVAESVIPSSGTFHVKLPKKHNVELGITISSPSSRKPGDPLVISDIKKGSVAHRTGTLELGDKLLAIDNIRLDNCSMEDAVQILQQCEDLVKLKIRKDEDNSDEQESSGAIIYTVELKRYGGPLGITISGTEEPFDPIIISSLTKGGLAERTGAIHIGDRILAINSSSLKGKPLSEAIHLLQMAGETVTLKIKKQTDAQSASSPKKFPISSHLSDLGDVEEDSSPAQKPGKLSDMYPSTVPSVDSAVDSWDGSAIDTSYGTEGTSFQASGYNFNTYDWRSPKQRGSLSPVTKPRSQTYPDVGLSYEDWDRSTASGFAGAADSAETEQEENFWSQALEDLETCGQSGILRELEATIMSGSTMSLNHEAPTPRSQLGRQASFQERSSSRPHYSQTTRSNTLPSDVGRKSVTLRKM
- soluble on expression in E. coli: soluble

Sequence: MDLSSLEIFRAVAHEASVTRAAQRLQRAQSNVTTRIRQLEEDLGVELFLRDGKRMSLTERGSEFLAYAEQLLALADEARQSMHPAEPGGRLRLGSMESTAASRLPALLASYHKACPRVALEVSTGTSHALFDGVRARRLDCALVAAGPGWAGELDGSGLRGEPLFREELLMILPAEHPPVHDVAEVRLRTLAGFARGCTYRQLAEDSLGTPLTVQEVGSYHAILACVAAGACVGVLPRSVLQLLGTPPLRSLPLAEVDTWLVWREGYATAAFERWRGVLGQAGD
- soluble on expression in E. coli: not soluble

Sequence: MTFAWGRGSHGGAGMRIVQITDTHFSPTKAHFNGNWAPLAAWIEQSGADLVIHTGDLSVDGADRDDDIAFCMDLMREISAPMLLVPGNHDVGHLPGSLQPVNAGRLERWRRLVGPDYWMEDAGSWRLIGLDSLLMGFDDAEEEAQFDWLRTVLESRGGRRVALFAHKPLFVDAPGEGDTGYWSVRPAQRQRLYDLIATHDVALFASGHLHRAWQGKYENTSLVWGPSAAFVVGDMERDMPGERLLGAVIHQFSDTVTSEIVAIPGMTAYVLDDVVAEVYPHEAHKARKRVASLEHHHHHH
- soluble on expression in E. coli: not soluble
